The sequences below were run on K4 kissing-loop RNA reporter (assay: apparent KD of K4 kissing-loop reporter; higher = weaker reporter binding). Settings: Eterna round: R107; input ligand: theophylline 20 uM.
Procedure: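 RNA-MaP round R107: designed RNA switches with theophylline, tryptophan, arginine or FMN aptamers are transcribed on-chip within common flanks. They are titrated with a labelled K4 kissing-loop RNA reporter in RNA-MaP buffer (100 mM Tris pH 7.5, 80 mM KCl, 4 mM MgCl2), without ligand or with the indicated ligand. Median apparent KD per design.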
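Also: bound reporter read as fluorescence of individual clusters on recovered sequencing chips by microscopy, with normalized cluster intensities fitted with a binding model.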

Sequence	apparent KD of K4 kissing-loop reporter [nM]
CGUGCCCGGCCGGAUACCAGUGACCCGCUGGGAACCGCGGGCCCAGAGUGAUGUUCGGGACACCCUUGGCAGCCGCCUGGGCUGC [#2 Same State - Theophylline B Attempt #14 (HarryS)]	375
AAACAAGAUGCAGGAUAUACGGACCCAGUGAUGUUGGGUAGAAUUGUCCCGGCAAUCCUUGUGGCAGUAGAAGGGCAAUAAAAGA [Gexeraora]	144
AAACUUGCAGUGAUGUUGCAAGUAGGUGAUACCAGCAUCGAAAGAUGCCCUUGGCAGCACCAUCUUGUAACAUAGGUAUCACCAA [(H1)-(H2)-(T1)-(T2)-(H)'-(T)'_Design4]	326
AAACAUCACUGGGAGUGAUGUUCUCAGUGACGAGGACCGGUACGGCCGCCACUCGCGAGAGAACUAGUCUAGUCUUGACUGCAUU [Excl Tryptophan A V14]	418
UGUCGUUCUAGUGAUGUUAGGACAGUUAUGAAGGAUAUACACACUCGUAGAAGGUCAGCUGCGGAAUGGCGAUUACGGUGAUUCG [theeternabot_sameState_KL_FMN_A_39]	132
GUGCGGCUAGUGAUGUUGGUUGCGUGGGAAGGAGCGCAGUAAAAUGCAGGUAGGUCGCCCGCAUCUCUGAUAAAAGAUUAAUUCA [KL-SSArg-A9]	238
CACGCCUGUUGUCUGGUAGACAGAUCAGAUACCAGACAUAGUGAUGUCCCUUGGCAGCUGAACAUCCAGUGAUGUUGGAUGCGUU [Theo A SS t11]	394
CCUAUCUCAUACGAUACCAGUCAAUAUAAACGAGUGAUGUUCGAAAUAAUAUGCCAUCACGACCCUUGGCAGCGUAUGGGAUAGG [Ex Theophylline B K4 6]	214
GGCGGCCGCGCGUAAGCGCGGCCGGCCGAUACCAGCGCGACGGCGCGCCCUUGGCAGCGGCGCCGAGUGAUGUUCGGCCUGCCGG [#2 Same State - Theophylline A Attempt #17 (HarryS)]	465
UAUUUAAAUAAAAUAAAAUAAAUUGCUGAUACCAGAGUCAAUUGACUCCCUUGGCAGCGGAUCGAGUGAUGUUCGUAAAAUUUAU [AK2.1 SS Theophylline A]	58.5
AAUUUAUUAACUGAUACCAGACUUUAGCGCGUUUAUAAGUCAAGUGAUGUUUGACUAAUUGUCCCUUGGCAGCAGUAUUUAUUAA [JR_SSTheophyB_Sub021]	157

Same assay, conditions: Eterna round: R107; input ligand: tryptophan 2.4 mM

Sequence	apparent KD of K4 kissing-loop reporter [nM]
CCUAUCUCAUACGAUACCAGUGAUUAACCAGUGAUGUUGGAAUAACCAAGGAAUAUUUAUCACCCUUGGCAGCGUAUGGGAUAGG [Ex Theophylline B K4 28]	69.4
GCGCGUCAUGUCAGCGGUGACACUGUCGAUACCAGUGCCGAAAGGCGCCCUUGGCAGCGACGUGCUGGAGUGAUGUUCCAGCGUU [#2 Exclusion - Theophylline A Attempt #30 (HarryS)]	145
AAUGUACAAGUGAUGUUUGUACUUUCCGAAGGAGCGUCUAAUAAGACAGGUAGGUCGCGGAUUCUCUAAAUUAUCAGGUCAUUAA [JR_ExcArginiA_Sub018]	87.4
UGUACCGAGUCAGGAUAUGGCGUCGAAAGACGAAACCAGUGAUGUUGGAAAAUCUGCGAAAGCAGUCCAGAAGGGACUUGGUACU [FmnBS 24 #SwitchBubble #StaticStem #DoubleMagnetSystem]	226
GCCUAGUGAUGUUGGGUAAUUUAAACCGGGCGAGGACCGGUACGGCCGCCACUCGGAAACACAACAAAAUUUAAUUUAAUUUAAA [Exclusion - Trytophan A]	152
UGAUACCAGACUGAUACCAGCCACAGAGUCAAAGACUCUGAAAAGGAAACCAGUGAUGUUGGCCCUUGGCAGCAGUCUGGUAUCU [TheoBX 15 #SwitchBubble #StaticStem]	164
GUAUCGCUAGGAGGAUAUUUCAAUUUGACUCUUUGAGUUAAUACGGAGUGAUGUUCCGAUUUACGGAAAGAAGGCCUAGUGAUAC [FMN B 13]	210
UUUAGAUGAAGUGAUACCAGACUUGAAAGUGAUGUUUUCCAAUAAUUUAAAUUAUUAGCUGUCCCUUGGCAGCACAGUUUAUUUA [JR_ExcTheophyB_Sub008]	193
AGUUCUUGCCGAAGGAGCGAGGCAGAGUGAUGUUCUGCAAGAGGUCGAAAGACCUCUCUGCCUCAGGUAGGUCGCGGCAUGAACA [Omei KL Arginine B Exc A v3]	535
AUUUUUAACUGAGGAUAUCGAAUUUAUGUAGUGAUGUUACUUUAAAUUAAAAUUUUAAUUUCUUAACGAGAAGGCAGAAUAAUUA [JR_SSFMNB_Sub025]	85.4
UUUCGUCUCUGAGGAUAUCAGAGGAGAGUGAUGUUCUCCCAUAGCCCAGUGAUGUUGGAUGCUAUCUGAGAAGGCAGUGGGCGAA [Same State FMN B GF 13]	155
AUACGUUUUUGUGAUACCAGACAUGUGAGUGAUGUUUACAUAUAUAUUUAAUAUUUAGCUGUCCCUUGGCAGCACUGUUUAUUUA [JR_ExcTheophyB_Sub004]	301
ACAGGAUCGAAAGAUCCUGAGCAGUCAAAACGAGGACCGGUACGGCCGCCACUCGAAUAAGAGAGUGAUGUUCUCGACUGCAAAA [Omei inspired 10 - Reversed #K4Late]	223
AGAACUGUCUUGGAUACCAGUGAUGUUGGUAUCGAUGUGUGAGUGCAAAGCGUCCCACAUCGCCCUUGGCAGCUAAGACAGUUCA [Omei KL Theo B Exc A v5]	292
ACGUAGUUCUAGGAUACCAGCCAAGAUGCCAGGACAAAAGUCCUGGCAGCCAGUGAUGUUGGCCCUUGGCAGCCUAGAACUACGA [Omei KL Theo B Exc B v9]	120

Reference: the supplement of paper PMC9170038
